Test results taken from patent US20140093496A1 (Chugai, published 2014).

T1: FcγRIIa type R extracellular domain with C-terminal His tag (human, UniProt P12318 34-217)
T1 construct: extracellular domain; also called FcgRIIaR; FcγRIIaR
T1 sequence (looked up): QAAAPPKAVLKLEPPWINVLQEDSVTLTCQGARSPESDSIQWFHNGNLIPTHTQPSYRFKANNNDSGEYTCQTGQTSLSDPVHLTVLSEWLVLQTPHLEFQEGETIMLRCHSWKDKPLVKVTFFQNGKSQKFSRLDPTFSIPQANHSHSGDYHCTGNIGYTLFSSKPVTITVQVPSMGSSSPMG

T2: FcγRIIa type R extracellular domain, C-terminal His tag (human, UniProt P12318 34-217)
T2 construct: extracellular domain; also called FcgRIIaR; FcγRIIaR; not shown: His tag at the C terminus
T2 sequence (looked up): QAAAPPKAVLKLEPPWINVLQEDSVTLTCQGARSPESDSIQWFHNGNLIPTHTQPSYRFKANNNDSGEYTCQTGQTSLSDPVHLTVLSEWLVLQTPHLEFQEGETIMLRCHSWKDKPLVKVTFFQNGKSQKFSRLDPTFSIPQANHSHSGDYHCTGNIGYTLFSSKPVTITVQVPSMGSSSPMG

B1: IL6R-BP182/IL6R-L (antibody, human IgG1, kappa)
heavy: QVQLQESGPGLVKPSETLSLTCAVSGHSISHDHAWSWVRQPPGEGLEWIGFISYSGITNYNPSLQGRVTISRDNSKNTLYLQMNSLRAEDTAVYYCARSLARTTAMDYWGEGTLVTVSSASTKGPSVFPLAPSSKSTSGGTAALGCLVKDYFPEPVTVSWNSGALTSGVHTFPAVLQSSGLYSLSSVVTVPSSSLGTQTYICNVNHKPSNTKVDKKVEPKSCDKTHTCPPCPAPDLLGGDSVFLFPPKPKDTLMISRTPEVTCVVVDVSHEDGEVKFNWYVDGVEVHNAKTKPREEQDNSTYRVVSVLTVLHQDWLNGKEYKCKVSNKALPKPIEKTISKAKGQPREPQVYTLPPSRDELTKNQVSLTCLVKGFYPSDIAVEWESNGQPENNYKTTPPVLDSDGSFFLYSKLTVDKSRWQQGNVFSCSVMHEALHNHYTQESLSLSP
light: not shown
notes: E233D/P238D/P271G/Y296D/A330K (EU) in IL6R-B3; copies: 2 + 2
B2: IL6R-BP192/IL6R-L (antibody, human IgG1, kappa)
heavy: QVQLQESGPGLVKPSETLSLTCAVSGHSISHDHAWSWVRQPPGEGLEWIGFISYSGITNYNPSLQGRVTISRDNSKNTLYLQMNSLRAEDTAVYYCARSLARTTAMDYWGEGTLVTVSSASTKGPSVFPLAPSSKSTSGGTAALGCLVKDYFPEPVTVSWNSGALTSGVHTFPAVLQSSGLYSLSSVVTVPSSSLGTQTYICNVNHKPSNTKVDKKVEPKSCDKTHTCPPCPAPDLLGGDSVFLFPPKPKDTLMISRTPEVTCVVVDVSDEDGEVKFNWYVDGVEVHNAKTKPREEQDNSTYRVVSVLTVLHQDWLNGKEYKCKVSNKALPKPIEKTISKAKGQPREPQVYTLPPSRDELTKNQVSLTCLVKGFYPSDIAVEWESNGQPENNYKTTPPVLDSDGSFFLYSKLTVDKSRWQQGNVFSCSVMHEALHNHYTQESLSLSP
light: not shown
notes: E233D/P238D/H268D/P271G/Y296D/A330K (EU) in IL6R-B3; copies: 2 + 2
B3: IL6R-BP189/IL6R-L (antibody, human IgG1, kappa)
heavy: QVQLQESGPGLVKPSETLSLTCAVSGHSISHDHAWSWVRQPPGEGLEWIGFISYSGITNYNPSLQGRVTISRDNSKNTLYLQMNSLRAEDTAVYYCARSLARTTAMDYWGEGTLVTVSSASTKGPSVFPLAPSSKSTSGGTAALGCLVKDYFPEPVTVSWNSGALTSGVHTFPAVLQSSGLYSLSSVVTVPSSSLGTQTYICNVNHKPSNTKVDKKVEPKSCDKTHTCPPCPAPELLGDDSVFLFPPKPKDTLMISRTPEVTCVVVDVSDEDGEVKFNWYVDGVEVHNAKTKPREEQYNSTYRVVSVLTVLHQDWLNGKEYKCKVSNAALPKPIEKTISKAKGQPREPQVYTLPPSRDELTKNQVSLTCLVKGFYPSDIAVEWESNGQPENNYKTTPPVLDSDGSFFLYSKLTVDKSRWQQGNVFSCSVMHEALHNHYTQESLSLSP
light: not shown
notes: G237D/P238D/H268D/P271G/K326A/A330K (EU) in IL6R-B3; copies: 2 + 2
B4: IL6R-BP191/IL6R-L (antibody, human IgG1, kappa)
heavy: QVQLQESGPGLVKPSETLSLTCAVSGHSISHDHAWSWVRQPPGEGLEWIGFISYSGITNYNPSLQGRVTISRDNSKNTLYLQMNSLRAEDTAVYYCARSLARTTAMDYWGEGTLVTVSSASTKGPSVFPLAPSSKSTSGGTAALGCLVKDYFPEPVTVSWNSGALTSGVHTFPAVLQSSGLYSLSSVVTVPSSSLGTQTYICNVNHKPSNTKVDKKVEPKSCDKTHTCPPCPAPDLLGGDSVFLFPPKPKDTLMISRTPEVTCVVVDVSDEDGEVKFNWYVDGVEVHNAKTKPREEQYNSTYRVVSVLTVLHQDWLNGKEYKCKVSNAALPKPIEKTISKAKGQPREPQVYTLPPSRDELTKNQVSLTCLVKGFYPSDIAVEWESNGQPENNYKTTPPVLDSDGSFFLYSKLTVDKSRWQQGNVFSCSVMHEALHNHYTQESLSLSP
light: not shown
notes: E233D/P238D/H268D/P271G/K326A/A330K (EU) in IL6R-B3; copies: 2 + 2
B5: IL6R-BP107/IL6R-L (antibody, human IgG1, kappa)
heavy: QVQLQESGPGLVKPSETLSLTCAVSGHSISHDHAWSWVRQPPGEGLEWIGFISYSGITNYNPSLQGRVTISRDNSKNTLYLQMNSLRAEDTAVYYCARSLARTTAMDYWGEGTLVTVSSASTKGPSVFPLAPSSKSTSGGTAALGCLVKDYFPEPVTVSWNSGALTSGVHTFPAVLQSSGLYSLSSVVTVPSSSLGTQTYICNVNHKPSNTKVDKKVEPKSCDKTHTCPPCPAPELLGGDSVFLFPPKPKDTLMISRTPEVTCVVVDVSEEDPEVKFNWYVDGVEVHNAKTKPREEQYNSTYRVVSVLTVLHQDWLNGKEYKCKVSNKALPAPIEKTISKAKGQPREPQVYTLPPSRDELTKNQVSLTCLVKGFYPSDIAVEWESNGQPENNYKTTPPVLDSDGSFFLYSKLTVDKSRWQQGNVFSCSVMHEALHNHYTQESLSLSP
light: not shown
notes: IgG1; P238D/H268E (EU numbering) introduced into IL6R-B3
B6: IL6R-BP103/IL6R-L (antibody, human IgG1, kappa)
heavy: QVQLQESGPGLVKPSETLSLTCAVSGHSISHDHAWSWVRQPPGEGLEWIGFISYSGITNYNPSLQGRVTISRDNSKNTLYLQMNSLRAEDTAVYYCARSLARTTAMDYWGEGTLVTVSSASTKGPSVFPLAPSSKSTSGGTAALGCLVKDYFPEPVTVSWNSGALTSGVHTFPAVLQSSGLYSLSSVVTVPSSSLGTQTYICNVNHKPSNTKVDKKVEPKSCDKTHTCPPCPAPELLGGDSVFLFPPKPKDTLMISRTPEVTCVVVDVVHEDPEVKFNWYVDGVEVHNAKTKPREEQYNSTYRVVSVLTVLHQDWLNGKEYKCKVSNKALPAPIEKTISKAKGQPREPQVYTLPPSRDELTKNQVSLTCLVKGFYPSDIAVEWESNGQPENNYKTTPPVLDSDGSFFLYSKLTVDKSRWQQGNVFSCSVMHEALHNHYTQESLSLSP
light: not shown
notes: IgG1; P238D/S267V (EU numbering) introduced into IL6R-B3
B7: IL6R-BP116/IL6R-L (antibody, human IgG1, kappa)
heavy: QVQLQESGPGLVKPSETLSLTCAVSGHSISHDHAWSWVRQPPGEGLEWIGFISYSGITNYNPSLQGRVTISRDNSKNTLYLQMNSLRAEDTAVYYCARSLARTTAMDYWGEGTLVTVSSASTKGPSVFPLAPSSKSTSGGTAALGCLVKDYFPEPVTVSWNSGALTSGVHTFPAVLQSSGLYSLSSVVTVPSSSLGTQTYICNVNHKPSNTKVDKKVEPKSCDKTHTCPPCPAPELLGGDSVFLFPPKPKDTLMISRTPEVTCVVVDVSHEDPEVKFNWYVDGVEVHNAKTKPREEQYNSTYRVVSVLTVLHQDWLNGKEYKCKVSNTALPAPIEKTISKAKGQPREPQVYTLPPSRDELTKNQVSLTCLVKGFYPSDIAVEWESNGQPENNYKTTPPVLDSDGSFFLYSKLTVDKSRWQQGNVFSCSVMHEALHNHYTQESLSLSP
light: not shown
notes: IgG1; P238D/K326T (EU numbering) introduced into IL6R-B3
B8: IL6R-BP126/IL6R-L (antibody, human IgG1, kappa)
heavy: QVQLQESGPGLVKPSETLSLTCAVSGHSISHDHAWSWVRQPPGEGLEWIGFISYSGITNYNPSLQGRVTISRDNSKNTLYLQMNSLRAEDTAVYYCARSLARTTAMDYWGEGTLVTVSSASTKGPSVFPLAPSSKSTSGGTAALGCLVKDYFPEPVTVSWNSGALTSGVHTFPAVLQSSGLYSLSSVVTVPSSSLGTQTYICNVNHKPSNTKVDKKVEPKSCDKTHTCPPCPAPELLGGDSVFLFPPKPKDTLMISRTPEVTCVVVDVSHEDPEVKFNWYVDGVEVHNAKTKPREEQYNSTYRVVSVLTVLHQDWLNGKEYKCKVSNLALPAPIEKTISKAKGQPREPQVYTLPPSRDELTKNQVSLTCLVKGFYPSDIAVEWESNGQPENNYKTTPPVLDSDGSFFLYSKLTVDKSRWQQGNVFSCSVMHEALHNHYTQESLSLSP
light: not shown
notes: IgG1; P238D/K326L (EU numbering) introduced into IL6R-B3
B9: IL6R-BP118/IL6R-L (antibody, human IgG1, kappa)
heavy: QVQLQESGPGLVKPSETLSLTCAVSGHSISHDHAWSWVRQPPGEGLEWIGFISYSGITNYNPSLQGRVTISRDNSKNTLYLQMNSLRAEDTAVYYCARSLARTTAMDYWGEGTLVTVSSASTKGPSVFPLAPSSKSTSGGTAALGCLVKDYFPEPVTVSWNSGALTSGVHTFPAVLQSSGLYSLSSVVTVPSSSLGTQTYICNVNHKPSNTKVDKKVEPKSCDKTHTCPPCPAPELLGGDSVFLFPPKPKDTLMISRTPEVTCVVVDVSHEDPEVKFNWYVDGVEVHNAKTKPREEQYNSTYRVVSVLTVLHQDWLNGKEYKCKVSNSALPAPIEKTISKAKGQPREPQVYTLPPSRDELTKNQVSLTCLVKGFYPSDIAVEWESNGQPENNYKTTPPVLDSDGSFFLYSKLTVDKSRWQQGNVFSCSVMHEALHNHYTQESLSLSP
light: not shown
notes: IgG1; P238D/K326S (EU numbering) introduced into IL6R-B3
B10: IL6R-BP911/IL6R-L (antibody, human IgG1, kappa)
heavy: QVQLQESGPGLVKPSETLSLTCAVSGHSISHDHAWSWVRQPPGEGLEWIGFISYSGITNYNPSLQGRVTISRDNSKNTLYLQMNSLRAEDTAVYYCARSLARTTAMDYWGEGTLVTVSSASTKGPSVFPLAPSSKSTSGGTAALGCLVKDYFPEPVTVSWNSGALTSGVHTFPAVLQSSGLYSLSSVVTVPSSSLGTQTYICNVNHKPSNTKVDKKVEPKSCDKTHTCPPCPAPELLGGDSVFLFPPKPKDTLMISRTPEVTCVVVDVSHEDPEVKFNWYVDGVEVHNAKTKPREEQYNSTYRVVSVLTVLHQDWLNGKEYKCKVSNKALPKPIEKTISKAKGQPREPQVYTLPPSRDELTKNQVSLTCLVKGFYPSDIAVEWESNGQPENNYKTTPPVLDSDGSFFLYSKLTVDKSRWQQGNVFSCSVMHEALHNHYTQESLSLSP
light: not shown
notes: IgG1; P238D/A330K (EU numbering) introduced into IL6R-B3

target: T3, FcγRIa extracellular domain with C-terminal His tag (human, UniProt P12314 16-292); assay: SPR (Biacore)
T3 construct: also called FcgRIa
Text: (§1) IL6R-L was utilized as the common antibody L chain for all of the antibodies, the antibodies were expressed and purified according to the method of Reference Example 1, and binding to each of the FcγRs (FcγRIa, FcγRIIa H type, FcγRIIa R type, FcγRIIb, and FcγRIIIa V type) was comprehensively evaluated by the method of Reference Example 2.
(§2) Furthermore, KD(IIaR)/KD(IIb) and KD(IIaH)/KD(IIb) in the table respectively represent the value obtained by dividing the KD value of each variant for FcγRIIaR by the KD value of each variant for FcγRIIb, and the value obtained by dividing the KD value of each variant for FcγRIIaH by the KD value of each variant for FcγRIIb. KD(IIb) of the parent polypeptide/KD(IIb) of the altered polypeptide refers to the value obtained by dividing the KD value of the parent polypeptide for FcγRIIb by the KD value of each variant for FcγRIIb.

T3 sequence (P12314 16-292): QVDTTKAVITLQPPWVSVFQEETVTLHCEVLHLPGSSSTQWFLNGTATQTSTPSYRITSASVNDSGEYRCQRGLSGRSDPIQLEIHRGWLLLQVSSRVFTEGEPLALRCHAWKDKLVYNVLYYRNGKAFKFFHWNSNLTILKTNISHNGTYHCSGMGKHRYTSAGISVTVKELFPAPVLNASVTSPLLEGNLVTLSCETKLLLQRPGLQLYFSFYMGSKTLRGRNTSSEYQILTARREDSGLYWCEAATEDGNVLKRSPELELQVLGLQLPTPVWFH

Binder	Kd [µM]
B1	0.01
B2	0.0066
B3	0.042
B4	0.004

target: T1, FcγRIIa type R extracellular domain …; assay: SPR (Biacore)
Text: as §1, §2

Binder	Kd [µM]
B2	2.6
B4	3

target: T2, FcγRIIa type R extracellular domain, …; assay: SPR (Biacore), antibody captured, FcγR as analyte
Text: as §2
Kinetic analyses for calculating the KD values of each altered antibody for FcγR were performed according to the following method. First, antibodies of interest were captured onto the above-mentioned sensor chips, and an Fcγ receptor diluted with the running buffer was allowed to interact. The Biacore Evaluation Software was used to globally fit the measured results to the obtained sensorgram using the 1:1 Langmuir binding model, and the association rate constant ka (L/mol/s) and the dissociation rate constant kd (1/s) were calculated; and from those values the dissociation constants KD (mol/L) were calculated.

Binder	Kd [µM]
B5	12
B6	11
B7	15
B8	11
B9	15
B10	16
